{"source": "paper PMC6060171", "molecular_target": "AcrIIA6 (anti-CRISPR protein of Streptococcus thermophilus virulent phage D1811, product of gene D1811_026) (Streptococcus thermophilus phage D1811)", "test": "SEC; gel filtration profile of purified AcrIIA6; size exclusion chromatography in 20 mM Hepes pH 7.5, 150 mM NaCl", "data": [{"substance": "AcrIIA6 (anti-CRISPR protein of Streptococcus thermophilus virulent phage D1811, product of gene D1811_026) (natural protein)", "values": [{"measurement": "stoichiometry N", "result": 2}]}]}
